Laboratory results: patent publication US20080260748A1

Biological target: desmocollin 2 (DSC2) (human) (UniProt Q02487)
Test: flow cytometry on NCI-H358 cells, control human IgG

MFI (ratio of intensity to control IgG): 9.48
B1: anti-DSC2 human antibody 332 (antibody, V domains shown)
VH: QVQLQQWGAGLLKPSETLSLTCAVYGGSFSGNYWSWIRQPPGKGLEWIGEINHSGNTKYNPSLKSRVAISADTSKNQFSLKLSSVTAADTAVYYCARVPFDWFHPPGEPPFYYYYGMDVWGQGTTVTVSS
VL: HVILTQPPSVSGAPGQRVTISCTGSSSNIGAGYDVHWYQQLPGTAPKLLIYGNSNRPSGVPDRFSGSKSGTSASLAITGLQAEDEADYYCQSYDSSLSGWVFGGGTKLTVPG
